In US20070237776A1 (Regeneron, published 2007):

Legend:
[1] = molecular target: T1, human interleukin-18 receptor alpha (hIL-18Rα) on cells (human, UniProt Q13478 19-541); assay: cell-based or functional assay
T1 sequence: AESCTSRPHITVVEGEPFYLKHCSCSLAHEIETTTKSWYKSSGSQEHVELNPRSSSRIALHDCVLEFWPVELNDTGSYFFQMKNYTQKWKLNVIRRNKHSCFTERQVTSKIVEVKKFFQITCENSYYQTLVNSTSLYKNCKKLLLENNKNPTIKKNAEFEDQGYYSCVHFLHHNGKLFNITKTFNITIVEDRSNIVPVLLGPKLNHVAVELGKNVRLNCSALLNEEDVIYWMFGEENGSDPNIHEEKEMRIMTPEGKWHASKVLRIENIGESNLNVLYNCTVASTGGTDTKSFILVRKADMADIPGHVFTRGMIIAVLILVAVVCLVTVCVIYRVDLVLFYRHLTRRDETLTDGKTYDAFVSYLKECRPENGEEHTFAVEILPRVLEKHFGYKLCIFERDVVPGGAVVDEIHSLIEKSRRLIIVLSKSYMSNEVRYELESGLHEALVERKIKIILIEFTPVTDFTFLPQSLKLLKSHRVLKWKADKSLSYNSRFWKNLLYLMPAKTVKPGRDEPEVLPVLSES

[2] = molecular target: T2, hIL-18Rα-hFc fusion protein (human, UniProt Q13478 19-329, limits assumed); assay: SPR (BIAcore), antibody from conditioned medium captured on anti-mouse IgG, hIL-18Rα-hFc in solution
T2 construct: also called IL-18R1-hFc; not shown: human Fc
T2 sequence: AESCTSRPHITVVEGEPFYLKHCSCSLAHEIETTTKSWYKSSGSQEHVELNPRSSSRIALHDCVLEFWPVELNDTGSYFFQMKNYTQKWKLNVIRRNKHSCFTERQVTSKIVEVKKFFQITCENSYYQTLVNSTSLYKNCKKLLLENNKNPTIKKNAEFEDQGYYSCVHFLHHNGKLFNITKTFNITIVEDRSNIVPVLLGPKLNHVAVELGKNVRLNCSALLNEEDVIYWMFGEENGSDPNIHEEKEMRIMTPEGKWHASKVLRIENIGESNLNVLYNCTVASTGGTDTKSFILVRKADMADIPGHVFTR
Method: The KD of the antigen binding to the selected antibodies described above were determined by surface kinetics on a real-time biosensor surface plasmon resonance assay (BIAcore™). The antibody derived from hybridoma was captured on an anti-mouse IgG surface and exposed to various concentrations of hIL-18Rα-hFc fusion protein. Kinetic analysis using evaluation software was performed to obtain the association and dissociation rate constants.

[3] = molecular target: T2, hIL-18Rα-hFc fusion protein; assay: ELISA solution affinity: antibody premixed with serial dilutions of hIL-18Rα-hFc, free antibody caught on hIL-18Rα-hFc-coated plate
Method: Binding affinity of the antibodies to antigen were also measured using a immunoassay. Antibodies were characterize from hybridoma conditioned medium or as purified protein. Protein was purified after hybridoma cells were grown in low IgG medium and affinity purified using Protein G. IC₅₀ of antigen binding was determined with an ELISA-based assay. Briefly, constant amounts of antibody at different levels, either in hybridoma conditioned medium or purified, were premixed with serial dilutions of antigen protein, hIL-18Rα-hFc, ranging from 0 to 10 mg/ml, and incubated for two hours at room temperature to reach pseudo-binding equilibrium between the antibody and antigen. These solutions were then transferred to 96-well hIL-18Rα-hFc pre-coated plates (solid phase) to allow the free-antibody in the mixtures to bind to plate-coated hIL-18Rα-hFc. […] After washing off excess antibody in solution, the plate-bound antibodies were detected with an HRP-conjugated goat anti-mouse IgG polyclonal antibody reagent and developed using either colorimetric or chemiluminescent substrates. The dependency of the signals on the concentrations of antigen in solution was analyzed with a 4 parameter fit analysis using Prism™ software from Graph Pad™ and reported as IC₅₀ that render 50% reduction of antibody binding to plate-coated antigen.

[4] = molecular target: T3, monomeric receptor, hIL18Rα-hIL-18Rb-myc-myc-his (human, UniProt O95256 20-356, limits assumed); assay: SPR (BIAcore), mAb from CHO conditioned medium captured on anti-human IgG, monomeric receptor 50-12.5 nM, 1:1 model
T3 construct: Construct known only by its name; also called monomeric antigen; monomeric hIL-18Rα; not shown: myc-myc-his tag
T3 sequence: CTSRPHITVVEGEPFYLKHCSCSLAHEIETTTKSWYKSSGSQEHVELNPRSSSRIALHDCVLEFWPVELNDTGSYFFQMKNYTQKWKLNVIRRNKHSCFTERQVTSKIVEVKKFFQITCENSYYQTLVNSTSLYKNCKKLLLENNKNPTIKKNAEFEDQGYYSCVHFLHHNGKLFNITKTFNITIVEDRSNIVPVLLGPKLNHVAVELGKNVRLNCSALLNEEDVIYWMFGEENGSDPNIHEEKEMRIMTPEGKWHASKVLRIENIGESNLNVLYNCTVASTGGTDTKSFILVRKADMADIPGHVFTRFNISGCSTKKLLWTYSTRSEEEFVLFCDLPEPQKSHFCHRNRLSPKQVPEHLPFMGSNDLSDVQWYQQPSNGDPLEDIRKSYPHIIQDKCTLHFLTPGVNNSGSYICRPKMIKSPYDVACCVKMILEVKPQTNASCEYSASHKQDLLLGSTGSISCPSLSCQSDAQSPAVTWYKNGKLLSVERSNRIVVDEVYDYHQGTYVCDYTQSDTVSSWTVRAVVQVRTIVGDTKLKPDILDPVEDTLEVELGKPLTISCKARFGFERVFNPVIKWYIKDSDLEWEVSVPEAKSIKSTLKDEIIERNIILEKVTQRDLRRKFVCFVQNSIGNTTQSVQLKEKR
Method: (§1) Both mouse IgG1 and human IgG4 versions of the derived antibody were measured to determine KD for monomeric antigen using BIAcore™ (Table 2). Binding affinity of monomeric receptor was measured by capturing mAb from subclone hybridoma supernatant and CHO conditioned media over amine coupled anti-mouse IgG and anti-human IgG. […] Data were processed and analyzed using a 1:1 binding model and KD values were calculated.

[5] = molecular target: T3, monomeric receptor, …; assay: SPR (BIAcore), mAb from subclone hybridoma supernatant captured on anti-mouse IgG, monomeric receptor 50-12.5 nM, 1:1 model
Method: as §1

B1: VH1F9 (antibody, V domains shown)
VH: QVQLVQSGAEVKKPGASVRVSCKASGYTFTSYDINWVRQATGQGLEYMGWMNPNSGNTGYAQKFQGRVSLTRDTSISTAYMDLNSLRSEDTAVYYCTTPGDKWNYEYFQFWGQGTLVTVSS
VL: DIQMTQSPSSVSASVGDRVTITCRASQHISIWLAWYQQKPGKAPKLLILSASSLLSGVPSRFSGSGSGTDFALTVSSLQPEDFATYYCQQANSFPSFGPGTKVEIK
notes: Hybridoma-derived chimeric IgG: human variable regions, mouse constant regions
- KG-1 Bioassay (IC50 nM) [1]: 0.085 nM
- Luciferase Bioassay (IC50 nM) [1]: 0.653 nM
- Kd [2]: 0.135 nM
- IC50 [3]: 0.026 nM

B2: VH1F9-18, human IgG4 (antibody, V domains shown)
VH: B1 VH
VL: B1 VL
notes: Fully human IgG4 version from CHO conditioned medium
- Kd [4]: 6 nM

B3: VH1F9-18, mouse IgG1 (antibody, V domains shown)
VH: B1 VH
VL: B1 VL
notes: Chimeric: human variable, mouse IgG1 constant; from subclone hybridoma supernatant; subclone -18 of VH1F9
- Kd [5]: 6.81 nM
